The results in this text go back to article PMC7900517, “PIP2 promotes conformation-specific dimerization of the EphA2 membrane region” (The Journal of Biological Chemistry, 2020).

Ends that are not written are not given here. Alexa Fluor 488 = fluorescent dye attached through a C5 maleimide linker to the added cysteine

Data set [1] deals with the molecule itself. Kind of data set: cross-linking; disulfide cross-linking through the C-terminal Cys; unlabeled TMJM in 14:1 PC or 22:1 PC liposomes ± 3% PIP2, lipid-to-peptide ratio 300:1; 19.3 mM HEPES, 1 mM EGTA, shaken 3 h at room temperature (19-21 °C); non-reducing SDS-PAGE (16% tricine gel), silver stain.
Data set [2] deals with the molecule itself. Nature of the data set: single-molecule photobleaching (TIRF) in SMALPs; Alexa Fluor 488-TMJM in 22:1 PC or 14:1 PC SMALPs with 3% biotin-PE, ± 3% PIP2 or 10% POPS, ± 1 mM Ca2+; lipid-to-peptide ratio 300:1; SMALPs (20 to 30 nM peptide) immobilised on PEGylated slides via biotin-streptavidin; SMALP buffer 19.3 mM HEPES, 150 mM NaCl, 1 mM EGTA; photobleaching steps counted for each SMALP.

B1: TMJM peptide (unlabeled) (peptide)
peptide: GSGNLAVIGGVAVGVVLLLVLAGVGFFIHRRRKCWN
notes: EphA2 residues 531 to 563: a short stretch of extracellular residues, the TMD and the first five JM residues (HRRRK); added residues at the C terminus; the free cysteine forms the disulfide in the cross-linking experiment; Free Cys at the JM end; also called unlabeled TMJM; source: synthetic peptide (F-moc chemistry, Thermo Fisher)
Consider B1, for which the binding result in data set [1] is recorded as “binds”.

B2: TMJM peptide labeled with Alexa Fluor 488 (peptide)
peptide: GSGNLAVIGGVAVGVVLLLVLAGVGFFIHRRRKC(Alexa Fluor 488)WN
modifications: also: Alexa Fluor 488 (C5 maleimide) on the added C-terminal cysteine
notes: EphA2 residues 531 to 563: a short stretch of extracellular residues, the TMD and the first five JM residues (HRRRK); added residues at the C terminus: a cysteine for dye conjugation and a tryptophan as fluorescent reporter; Reconstituted in 14:1 PC or 22:1 PC bilayers with 3% biotin-PE and solubilised as SMALPs; also called Alexa Fluor 488 labeled TMJM peptide; source: synthetic peptide (F-moc …)
As for B2, the “stoichiometry N” value in data set [2] was determined as 2.
